Test results taken from patent publication US20050113303.

B1: recombinant human NEP (neprilysin, expressed from human NEP cDNA in COS-7 cells) (protein)
chain: MESQMDITDINTPKPKKKQRWTPLEISLSVLVLLLTIIAVTMIALYATYDDGICKSSDCIKSAARLIQNMDATTEPCTDFFKYACGGWLKRNVIPETSSRYGNFDILRDELEVVLKDVLQEPKTEDIVAVQKAKALYRSCINESAIDSRGGEPLLKLLPDIYGWPVATENWEQKYGASWTAEKAIAQLNSKYGKKVLINLFVGTDDKNSVNHVIHIDQPRLGLPSRDYYECTGIYKEACTAYVDFMISVARLIRQEERLPIDENQLALEMNKVMELEKEIANATAKPEDRNDPMLLYNKMTLAQIQNNFSLEINGKPFSWLNFTNEIMSTVNISITNEEDVVVYAPEYLTKLKPILTKYSARDLQNLMSWRFIMDLVSSLSRTYKESRNAFRKALYGTTSETATWRRCANYVNGNMENAVGRLYVEAAFAGESKHVVEDLIAQIREVFIQTLDDLTWMDAETKKRAEEKALAIKERIGYPDDIVSNDNKLNNEYLELNYKEDEYFENIIQNLKFSQSKQLKKLREKVDKDEWISGAAVVNAFYSSGRNQIVFPAGILQPPFFSAQQSNSLNYGGIGMVIGHEITHGFDDNGRNFNKDGDLVDWWTQQSASNFKEQSQCMVYQYGNFSWDLAGGQHLNGINTLGENIADNGGLGQAYRAYQNYIKKNGEEKLLPGLDLNHKQLFFLNFAQVWCGTYRPEYAVNSIKTDVHSPGNFRIIGTLQNSAEFSEAFHCRKNSYMNPEKKCRVW
B2: recombinant human PEX protein (full-length, expressed from plasmid pPEX in COS-7 cells) (protein)
chain: MEAETGSSVETGKKANRGTRIALVVFVGGTLVLGTILFLVSQGLLSLQAKQEYCLKPECIEAAAAILSKVNLSVDPCDNFFRFACDGWISNNPIPEDMPSYGVYPWLRHNVDLKLKELLEKSISRRRDTEAIQKAKILYSSCMNEKAIEKADGKPLLHILRHSPFRWPVLESNIGPEGVWSERKFSLLQTLATFRGQYSNSVFIRLYVSPDDKASNEHILKLDQATLSLAVREDYLDNSTEAKSYRDALYKFMVDTAVLLGANSSRAEHDMKSVLRLEIKIAEIMIPHENRTSEAMYNKMNISELSAMIPQFDWLGYIKKVIDTRLYPHLKDISPSENVVVRVPQYFKDLFRILGSERKKTIDNYLVWRMVYSRIPNLSRRFQYRWLEFSRVIQGTTTLLPQRDKCVNFIESALPYVVGKMFVDVYFQEDKKEMMEELVEGVRWAFIDMLEKENEWMDAGTKRKAKEKARAVLAKVGYPEFIMNDTHVNEDLKAIKFSEADYFGNVLQTRKYLAQSDFFWLRKAVPKTEWFTNPTTVNAFYSASTNQIRFPAGELQKPFFWGTEYPRSLSYGAIGVIVGHEFTHGFDNNGRKYDKNGNLDPWWSTESEEKFKEKTKCMINQYSNYYWKKAGLNVKGKRTLGENIADNGGLREAFRAYRKWINDRRQGLEEPLLPGITFTNNQLFFLSYAHVRCNSYRPEAAREQVQIGAHSPPQFRVNGAISNFEEFQKAFNCPPNSTMNRGMDSCRLW

Molecular target: [D-Ala^2,Leu^5]enkephalin

Protein | production of Tyr-D-Ala-Gly from the substrate, HPLC
B1 | production of Tyr-D-Ala-Gly from the substrate was evident only in NEP-expressing membrane preparations
B2 | production of Tyr-D-Ala-Gly from the substrate was evident only in NEP-expressing membrane preparations
